What was measured:
[1] = tested on: human PMEL17; assay: Monoclonal antibody epitope mapping with PMEL17 deletion mutants (immunoblot, FACS); assay type: binding; conditions: N-terminal deletions by immunoblot, C-terminal deletions in 293 cells by FACS
Description: All the constructs for epitope mapping were made by PCR amplification of each fragment and subcloning into either pRKtkneo vector with an N-terminal gD tag, or pRKtkneo vector with an N-terminal gD tag and a C-terminal GPI anchor. Transfections were performed using FuGene 6 (Roche Applied Science), and empty vector was used as control. Full-length human PMEL17 was subcloned into pRKtkneo vector with an N-terminal gD tag.
A signal sequence and a gD epitope tag were fused to the N-terminal sequence of a series of deletion mutants, which were then expressed in mammalian cells and the lysates analyzed by immuoblotting for reactivity with 17A9 or 77E6. The N-terminal deletions tested included Δ100, Δ255, Δ292, Δ315, Δ444, Δ515, and Δ567.
In addition, C-terminal deletions with an N-terminal gD tag and a C-terminal GPI anchor were transiently transfected into 293 cells and analyzed for antibody binding by FACS. The C-terminal deletions tested included PMEL1725-125, PMEL1725-105, PMEL1725-85, PMEL1725-65, and PMEL1725-45. Finally, a PMEL17 fragment comprising the region from amino acid 515 through the transmembrane domain, but lacking the cytoplasmic region (“Δ515-C”) and a PMEL17 fragment comprising just the cytoplasmic domain with an N-terminal gD tag and a C-terminal GPI anchor were analyzed by immuoblotting for reactivity with 77E6.

[2] = tested on: 928mel cells; assay: Live cell staining and FACS with directly labeled antibodies; assay type: cell-based
Description: The predominance of the N-terminal epitope at the cell surface relative to the cytoplasmic epitope is consistent with stronger FACS signals observed with 17A9 over 77E6. Nevertheless, it appears that some portion of the cytoplasmic region is present at the cell surface to account for the FACS signals observed with 77E6. To address this, live cells were reacted with the 77E6 and 17A9 antibodies that were directly labeled with Alexa Fluors 555 and 488, respectively. […] The binding of the individual antibodies was unaffected by the presence of the other antibody. […] Further, although 17A9 stained all cells uniformly and consistently, 77E6 staining was variable from cell to cell and the overall degree of staining varied across preparations. […] Overall, the uniform and intense reactivity of 17A9 on melanoma cells makes this antibody a good candidate for drug conjugation.

[3] = target: T1, PMEL17 (Homo sapiens, UniProt P40967); assay: Species cross-reactivity by FACS, 293S cells stably transfected with gD tagged PMEL17; assay type: binding; set-up: gD tag (N); expressed in transfected cells; conditions: 10 μg/ml antibody
T1 sequence (P40967 25-661): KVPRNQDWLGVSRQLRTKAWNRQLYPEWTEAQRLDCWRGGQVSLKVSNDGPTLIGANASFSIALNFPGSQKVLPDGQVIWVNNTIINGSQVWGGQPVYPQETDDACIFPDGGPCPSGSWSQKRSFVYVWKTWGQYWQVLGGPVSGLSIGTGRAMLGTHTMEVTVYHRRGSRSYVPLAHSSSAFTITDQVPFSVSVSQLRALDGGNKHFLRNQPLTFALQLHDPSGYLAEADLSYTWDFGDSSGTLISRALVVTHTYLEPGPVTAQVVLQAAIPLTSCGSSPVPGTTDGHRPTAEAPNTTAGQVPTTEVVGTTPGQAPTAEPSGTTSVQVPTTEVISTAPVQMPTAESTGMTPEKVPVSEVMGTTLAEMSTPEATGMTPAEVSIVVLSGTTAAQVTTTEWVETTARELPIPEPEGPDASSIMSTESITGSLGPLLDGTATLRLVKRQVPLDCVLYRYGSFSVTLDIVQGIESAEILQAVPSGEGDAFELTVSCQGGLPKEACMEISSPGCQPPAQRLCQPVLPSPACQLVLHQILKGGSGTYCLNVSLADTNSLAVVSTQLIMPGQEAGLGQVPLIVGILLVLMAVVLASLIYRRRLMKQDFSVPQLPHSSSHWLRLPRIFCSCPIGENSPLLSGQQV
Description: Antibody 17A9 was tested to determine if it cross-reacts with PMEL17 from species other than human. […] All of the sequences include the signal sequence except for the cynomolgus monkey PMEL17. Residues that are identical among all four species are indicated by asterisks (*). In the region where the rat sequence has a deletion, residues that are identical among the remaining three species are indicated by a plus (+). Binding to each species of PMEL17 was determined by FACS analysis using 293S cells stably transfected with an N-terminal gD tagged PMEL17 (human, cynomolgus monkey, rat, or mouse PMEL17); stained with 10 μg/ml 17A9 antibody; and detected with R-Phycoerythrin conjugated goat anti-mouse antibody.

[4] = target: T1, PMEL17; assay: Immunohistochemistry of human melanoma tissue specimens; set-up: The expression of PMEL17 was evaluated across a panel of human melanoma tissue specimines by immunohistochemistry; from tissue; host or cells: 58 human melanoma specimens (30 primary, 28 metastatic); conditions: 58 specimens (30 primary, 28 metastatic)
Description: To assess the potential liability of targeting PMEL17 on normal melanocytes, the level of expression of this target in normal human skin was evaluated by immunohistochemistry. Immunohistochemistry (IHC) was performed on 4 μm thick formalin-fixed paraffin embedded tissue sections mounted on glass slides. All IHC steps were carried out on the Ventana Discovery XT (Ventana Medical Systems; Tucson, Ariz.) autostainer. Pretreatment was done with Cell Conditioner 1, standard time. Primary antibody, PMEL17 clone 31D1 was used at a concentration of 10 μg/ml and was incubated on slides for 1 hour at 37° C. Ventana Mouse OmniMap (Ventana Medical Systems; AZ) was used as the detection system. […]
The expression of PMEL17 was evaluated across a panel of human melanoma tissue specimines by immunohistochemistry substantially as described above, using both 17A9 and 31D1. Staining was scored on an arbitrary scale ranging from zero, for absent, to 3+ for most intense: • 0 (negative): very weak or no staining in >90% of melanoma cells • 1+(mild): predominant staining pattern is weak • 2+(moderate): predominant staining pattern is moderately strong in the majority (>50%) of melanoma cells • 3+(strong): predominant staining pattern is strong in the majority (>50%) of melanoma cells Exemplary staining for each of the levels of the scale is shown in FIG. 7A, left panels.

B1: 17A9 (antibody, listed as Mus musculus, V domains shown)
VH: EVQLQQSGPELVKPGASMKISCKSSGYSFTRYTMNWVKQSHGKNLEWIGVINPYNGGTVYNQKFKGKATLTVDKSSSTAYMELLSLTSEDSAVYYCARTDYDGYAMDYWGQGTSVTVSS
VL: DVQITQSPSYLAASPGETITINCRATKSISKYLAWYQEQPGKTNNLLIYSGSTLQSGIPSRFSGSGSGTDFTLTISSLEPEDFAMYYCQQHNEYPYTFGSGTKLEIK
binding to PMEL17 deletion mutants [1]: bound only to PMEL1725-125
binding to PMEL17 deletion mutants ([1]; listed as 17A6): bound only to full-length PMEL17
binding in the presence of the other labeled antibody (competition) ([2]; 77E6 and 17A9 alone or both together, FACS): unaffected
cell surface staining of live-labeled cells ([2]; Alexa Fluor labeled antibodies): uniform cell surface staining
binding to human PMEL17 by FACS [3]: bind
human melanoma specimens PMEL17+ when detected with the antibody [4]: 64%

From patent US10196454B2, “Anti-PMEL17 antibodies and immunoconjugates” (GENENTECH, INC., priority 2012, dated 2019)
